Experimental data from patent publication US20120003684A1, “Method and Means for Detecting the Activity of Osteoclasts” (TECHNISCHE UNIVERSITAET DRESDEN, priority 2009, published 2012).

Tests used:
[1] = system: osteoclasts differentiated by RANKL from mouse osteoclast precursor cell line RAW 264.7; assay: osteoclast resorption assay on bio-mineralized matrix, inhibition study (FIG. 4); assay type: cell-based; conditions: RAW 264.7 differentiated by RANKL addition (40 ng/ml)
Protocol: Moreover, particularly in medical research the examination of inhibiting materials or activators of osteoclast activity is especially of interest. As an example, in FIG. 4 it is shown that the osteoclast activity depends on the inhibitor interferon-y. The osteoclasts were differentiated by RANKL addition (40 ng/ml)) from a mouse osteoclast precursor cell line (RAW 264.7). […] Accordingly, the invention can also be utilized for inhibition studies in relation to osteoclast resorption activity.
For the synthesis of a bone-like physiological matrix, the human osteoblast precursor cell line SAOS-2 (DSMZ ACC 243, DSMZ, Braunschweig) is used in this embodiment. The cells are seeded on cell culturing plates. The differentiation of the cells is realized by addition of ascorbate (300 μmol/l) and β-glycerophosphate (10 mmol/l) to the medium (alpha MEM, Biochrom, 10% FCS). […]
(§1) The resorption assay is based on the combination of two methods with each other. […] For determining the resorption surface area the dried plates were subsequently scanned by a transmitted light scanner and evaluated e.g. by means of Image Quant. In this connection, the scanned surface area was determined and white surfaces differentiated from black surfaces. The volume of the white surface area can then be calculated by means of the calibration line (see FIG. 2) into the actual resorted surface area.

[2] = system: primary mouse osteoclast precursor cells (primary mouse bone marrow monocytes); assay: osteoclast resorption assay on bio-mineralized matrix, MCSF dependency (FIG. 1); assay type: cell-based; conditions: RANKL (40 ng/ml) present, as a function of MCSF concentration
From the text: The sequence is divided into two phases. In phase I, the matrix synthesis with osteoblasts occurs; the latter, after production of the matrix (approximately 25 days), are removed from the matrix. The subsequent phase II encompasses the use of the matrix for the osteoclast resorption assay. In this connection, the method in this example was employed in order to examine the resorption activity of primary mouse osteoclast precursor cells (primary mouse bone marrow monocytes) as a function of the concentration of MCSF (macrophage colony-stimulating factor).
For the synthesis of a bone-like physiological matrix, the human osteoblast precursor cell line SAOS-2 (DSMZ ACC 243, DSMZ, Braunschweig) is used in this embodiment. The cells are seeded on cell culturing plates. […]
as §1

B1: interferon-y: inhibitor of osteoclast activity (protein, UniProt P01579 24-161, looked up)
Interferon gamma: QDPYVKEAENLKKYFNAGHSDVADNGTLFLGILKNWKEESDRKIMQSQIVSFYFKLFKNFKDDQSIQKSVETIKEDMNVKFFNSNKKKRDDFEKLTNYSVTDLNVQRKAIHELIQVMAELSPAAKTGKRKRSQMLFRG
With B1 the “osteoclast activity (resorption activity)” value [1] was “concentration-dependent inhibition”.

B2: MCSF: macrophage colony-stimulating factor, cytokine added for osteoclast differentiation (protein, UniProt P09603 33-554, looked up)
Macrophage colony-stimulating …: EEVSEYCSHMIGSGHLQSLQRLIDSQMETSCQITFEFVDQEQLKDPVCYLKKAFLLVQDIMEDTMRFRDNTPNAIAIVQLQELSLRLKSCFTKDYEEHDKACVRTFYETPLQLLEKVKNVFNETKNLLDKDWNIFSKNCNNSFAECSSQDVVTKPDCNCLYPKAIPSSDPASVSPHQPLAPSMAPVAGLTWEDSEGTEGSSLLPGEQPLHTVDPGSAKQRPPRSTCQSFEPPETPVVKDSTIGGSPQPRPSVGAFNPGMEDILDSAMGTNWVPEEASGEASEIPVPQGTELSPSRPGGGSMQTEPARPSNFLSASSPLPASAKGQQPADVTGTALPRVGPVRPTGQDWNHTPQKTDHPSALLRDPPEPGSPRISSLRPQGLSNPSTLSAQPQLSRSHSSGSVLPLGELEGRRSTRDRRSPAEPEGGPASEGAARPLPRFNSVPLTDTGHERQSEGSFSPQLQESVFHLLVPSVILVLLAVGGLLFYRWRRRSHQEPQRADSPLEQPEGSPLTQDDRQVELPV
For B2, the “resorption activity of the differentiated osteoclasts” value [2] was “depends on the quantity of added MCSF”.
